Source: patent US20060253917A1 (published 2006)

B1: OsMADS6 aa 50-200 (other)
chain: SRGKLYEFGSAGITKTLERYQHCCYNAQDSNNALSETQSWYHEMSKLKAKFEALQRTQRHLLGEDLGPLSVKELQQLEKQLECALSQARQRKTQLMMEQVEELRRKERQLGEINRQLKHKLEVEGSTSNYRAMQQASWAQGAVVENGAAYV
notes: bait, Gal4 DBD fusion; also called PN20233
B4: OsMADS3 aa 70-170 (other)
chain: KKANSDTSNSGTVAEVNAQHYQQESSKLRQQISSLQNANSRTIVGDSINTMSLRDLKQVENRLEKGIAKIRARKNELLYAEVEYMQKREVELQNDNMYLRS
notes: bait, Gal4 DBD fusion; also called PN20700

Tests used:
OsMADS8 aa 75-238 = molecular target: T1, OsMADS8 aa 75-238 (Oryza sativa, UniProt Q9SAR1 75-238); assay: Y2H; output trait library
T1 construct: prey, AD fusion; also called PN20778
T1 sequence: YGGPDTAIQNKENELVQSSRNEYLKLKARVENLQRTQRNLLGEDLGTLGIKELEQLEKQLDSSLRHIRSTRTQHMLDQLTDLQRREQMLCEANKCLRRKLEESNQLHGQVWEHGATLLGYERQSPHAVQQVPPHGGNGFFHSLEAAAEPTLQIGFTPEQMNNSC
Method in brief: (§1)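 Using an automated, high-throughput yeast two-hybrid assay provided by Myriad Genetics Inc. (Salt Lake City, Utah), protein-protein interactions were detected. Against either the input trait or the output trait rice prey library, a bait clone encoding a defined amino-acid fragment of a rice protein was screened. The encoding sequences of the prey clones that were retrieved were then compared against databases by BLAST to identify the interacting proteins.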

OsMADS1 aa 70-257 = molecular target: T2, OsMADS1 aa 70-257 (Oryza sativa, UniProt A2XDY1 70-257); assay: Y2H; output trait library
T2 construct: prey, AD fusion; also called PN19788
T2 sequence: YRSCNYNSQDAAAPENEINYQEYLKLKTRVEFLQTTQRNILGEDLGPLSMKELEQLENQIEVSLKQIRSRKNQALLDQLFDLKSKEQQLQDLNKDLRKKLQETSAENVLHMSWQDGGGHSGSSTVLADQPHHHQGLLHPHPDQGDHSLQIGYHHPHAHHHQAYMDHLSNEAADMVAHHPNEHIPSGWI
Method in brief: as §1

OsMADS8 aa 79-248 = molecular target: T3, OsMADS8 aa 79-248 (Oryza sativa, UniProt Q9SAR1 79-248); assay: Y2H; output trait library
T3 construct: prey, AD fusion; also called PN20778
T3 sequence: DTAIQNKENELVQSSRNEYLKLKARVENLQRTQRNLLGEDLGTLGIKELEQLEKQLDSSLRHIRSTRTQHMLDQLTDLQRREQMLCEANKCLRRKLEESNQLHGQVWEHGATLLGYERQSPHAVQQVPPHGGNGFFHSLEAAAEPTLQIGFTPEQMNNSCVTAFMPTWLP
Method in brief: as §1

OsRAP1B aa 1-179 = molecular target: T4, OsRAP1B aa 1-179 (Oryza sativa, UniProt Q10CQ1 1-179); assay: Y2H; output trait library
T4 construct: prey, AD fusion; also called PN20232
T4 sequence: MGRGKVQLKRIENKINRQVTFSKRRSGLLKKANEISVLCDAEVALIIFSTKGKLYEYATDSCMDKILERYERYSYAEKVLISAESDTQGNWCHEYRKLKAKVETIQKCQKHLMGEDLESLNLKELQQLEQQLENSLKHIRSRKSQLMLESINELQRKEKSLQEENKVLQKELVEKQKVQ
Method in brief: as §1

OsMADS45 aa 83-234 = molecular target: T5, OsMADS45 aa 83-234 (Oryza sativa, UniProt P0C5B0 83-234); assay: Y2H; output trait library
T5 construct: prey, AD fusion; also called PN20231
T5 sequence: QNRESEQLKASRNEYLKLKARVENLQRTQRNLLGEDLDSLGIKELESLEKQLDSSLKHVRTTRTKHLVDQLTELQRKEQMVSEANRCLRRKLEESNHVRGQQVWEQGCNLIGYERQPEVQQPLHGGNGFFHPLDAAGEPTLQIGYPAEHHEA
Method in brief: as §1

OsMADS6 aa 50-200 = molecular target: B1; assay: Y2H; input trait library
Method in brief: as §1

OsMADS45 aa 56-249 = molecular target: T6, OsMADS45 aa 56-249 (Oryza sativa, UniProt P0C5B0 56-249); assay: Y2H; output trait library
T6 construct: prey, AD fusion; also called PN20231
T6 sequence: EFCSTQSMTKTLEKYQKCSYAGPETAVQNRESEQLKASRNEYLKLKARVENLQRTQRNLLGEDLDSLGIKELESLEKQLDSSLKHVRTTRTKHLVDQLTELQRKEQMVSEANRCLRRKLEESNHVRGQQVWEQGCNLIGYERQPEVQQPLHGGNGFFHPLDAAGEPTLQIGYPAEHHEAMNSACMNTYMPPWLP
Method in brief: as §1

OsMADS8 aa 61-248 = molecular target: T7, OsMADS8 aa 61-248 (Oryza sativa, UniProt Q9SAR1 61-248); assay: Y2H; input trait library
T7 construct: prey, AD fusion; also called PN20778
T7 sequence: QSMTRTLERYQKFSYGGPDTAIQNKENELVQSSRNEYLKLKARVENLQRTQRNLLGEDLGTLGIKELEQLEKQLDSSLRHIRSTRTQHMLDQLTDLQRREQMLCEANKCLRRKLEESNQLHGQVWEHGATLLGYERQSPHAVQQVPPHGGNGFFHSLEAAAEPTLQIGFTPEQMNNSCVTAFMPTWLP
Method in brief: as §1

OsMADS45 aa 48-249 = molecular target: T8, OsMADS45 aa 48-249 (Oryza sativa, UniProt P0C5B0 48-249); assay: Y2H; input trait library
T8 construct: prey, AD fusion; also called PN20231
T8 sequence: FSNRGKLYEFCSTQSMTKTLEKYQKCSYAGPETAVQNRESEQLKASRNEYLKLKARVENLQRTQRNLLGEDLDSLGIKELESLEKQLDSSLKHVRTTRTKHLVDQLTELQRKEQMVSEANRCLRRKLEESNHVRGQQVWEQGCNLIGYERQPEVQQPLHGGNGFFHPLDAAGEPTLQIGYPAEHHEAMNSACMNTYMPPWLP
Method in brief: as §1

OsMADS45 aa 2-214 = molecular target: T9, OsMADS45 aa 2-214 (Oryza sativa, UniProt P0C5B0 2-214); assay: Y2H; output trait library
T9 construct: prey, AD fusion; also called PN20231
T9 sequence: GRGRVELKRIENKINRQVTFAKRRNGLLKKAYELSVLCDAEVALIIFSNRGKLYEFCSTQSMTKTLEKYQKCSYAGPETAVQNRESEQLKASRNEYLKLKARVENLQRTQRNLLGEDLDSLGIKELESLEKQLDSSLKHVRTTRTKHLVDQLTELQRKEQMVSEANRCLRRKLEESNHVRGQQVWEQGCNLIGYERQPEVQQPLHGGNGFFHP
Method in brief: as §1

OsMADS8 aa 68-245 = molecular target: T10, OsMADS8 aa 68-245 (Oryza sativa, UniProt Q9SAR1 68-245); assay: Y2H; output trait library
T10 construct: prey, AD fusion; also called PN20778
T10 sequence: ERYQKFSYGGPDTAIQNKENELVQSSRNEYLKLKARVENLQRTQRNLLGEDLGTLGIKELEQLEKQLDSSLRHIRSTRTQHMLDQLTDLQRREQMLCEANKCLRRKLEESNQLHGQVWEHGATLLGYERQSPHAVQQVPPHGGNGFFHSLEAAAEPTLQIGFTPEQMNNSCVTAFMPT
Method in brief: as §1

OsMADS45 aa 57-249 = molecular target: T11, OsMADS45 aa 57-249 (Oryza sativa, UniProt P0C5B0 57-249); assay: Y2H; output trait library
T11 construct: prey, AD fusion; also called PN20231
T11 sequence: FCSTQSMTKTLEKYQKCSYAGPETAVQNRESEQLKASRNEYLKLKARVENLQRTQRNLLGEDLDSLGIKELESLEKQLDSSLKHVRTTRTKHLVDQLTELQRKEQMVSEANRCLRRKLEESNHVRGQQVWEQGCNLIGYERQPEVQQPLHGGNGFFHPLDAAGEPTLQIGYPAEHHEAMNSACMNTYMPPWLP
Method in brief: as §1

OsMADS8 aa 6-159 = molecular target: T12, OsMADS8 aa 6-159 (Oryza sativa, UniProt Q9SAR1 6-159); assay: Y2H; output trait library
T12 construct: prey, AD fusion; also called PN20778
T12 sequence: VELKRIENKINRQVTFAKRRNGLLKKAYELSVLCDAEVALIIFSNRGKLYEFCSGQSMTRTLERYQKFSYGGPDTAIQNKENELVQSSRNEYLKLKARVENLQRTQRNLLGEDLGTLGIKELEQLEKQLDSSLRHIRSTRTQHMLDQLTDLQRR
Method in brief: as §1

OsMADS3 aa 70-170 = molecular target: B4; assay: Y2H; input trait library
Method in brief: as §1

OsMADS17 aa 51-248 = molecular target: T13, OsMADS17 aa 51-248 (Oryza sativa, UniProt Q7XUN2 51-248); assay: Y2H; output trait library
T13 construct: prey, AD fusion; also called PN20914
T13 sequence: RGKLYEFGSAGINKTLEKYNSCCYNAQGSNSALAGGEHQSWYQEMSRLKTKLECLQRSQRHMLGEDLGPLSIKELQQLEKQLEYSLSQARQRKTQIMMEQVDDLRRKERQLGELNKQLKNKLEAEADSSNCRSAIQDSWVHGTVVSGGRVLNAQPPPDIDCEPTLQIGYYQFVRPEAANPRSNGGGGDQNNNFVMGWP
Method in brief: as §1

OsFDRMADS6 aa 74-246 = molecular target: T14, OsFDRMADS6 aa 74-246 (Oryza sativa, UniProt P0C5B1 74-246); assay: Y2H; output trait library
T14 construct: prey, AD fusion; also called PN19766
T14 sequence: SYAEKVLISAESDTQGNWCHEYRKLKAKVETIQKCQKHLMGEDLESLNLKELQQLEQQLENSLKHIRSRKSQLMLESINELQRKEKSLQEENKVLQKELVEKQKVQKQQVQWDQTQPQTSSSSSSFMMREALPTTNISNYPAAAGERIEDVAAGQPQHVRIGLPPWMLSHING
Method in brief: as §1

OsMADS1 aa 95-254 = molecular target: T15, OsMADS1 aa 95-254 (Oryza sativa, UniProt A2XDY1 95-254); assay: Y2H; input trait library
T15 construct: prey, AD fusion; also called PN19788
T15 sequence: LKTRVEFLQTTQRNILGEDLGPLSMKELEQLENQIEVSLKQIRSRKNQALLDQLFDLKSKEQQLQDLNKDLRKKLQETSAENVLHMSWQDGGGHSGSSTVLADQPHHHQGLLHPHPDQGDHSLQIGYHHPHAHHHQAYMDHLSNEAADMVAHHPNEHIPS
Method in brief: as §1

OsMADS1 aa 74-172 = molecular target: T16, OsMADS1 aa 74-172 (Oryza sativa, UniProt A2XDY1 74-172); assay: Y2H; input trait library
T16 construct: prey, AD fusion; also called PN19788
T16 sequence: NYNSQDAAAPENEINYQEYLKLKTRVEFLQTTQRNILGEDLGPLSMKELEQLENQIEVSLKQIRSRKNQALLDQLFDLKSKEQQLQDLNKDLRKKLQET
Method in brief: as §1

OsMADS45 aa 120-249 = molecular target: T17, OsMADS45 aa 120-249 (Oryza sativa, UniProt P0C5B0 120-249); assay: Y2H; output trait library
T17 construct: prey, AD fusion; also called PN20231
T17 sequence: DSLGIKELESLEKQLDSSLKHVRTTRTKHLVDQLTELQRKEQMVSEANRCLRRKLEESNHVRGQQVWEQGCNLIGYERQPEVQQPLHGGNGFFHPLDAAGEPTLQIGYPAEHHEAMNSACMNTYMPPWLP
Method in brief: as §1

B1
binding result (OsMADS8 aa 75-238): binds
binding result (OsMADS1 aa 70-257): binds
binding result (OsMADS8 aa 79-248): binds
binding result (OsRAP1B aa 1-179): binds
binding result (OsMADS45 aa 83-234): binds

B2: OsRAP1B aa 1-188 (other)
chain: MGRGKVQLKRIENKINRQVTFSKRRSGLLKKANEISVLCDAEVALIIFSTKGKLYEYATDSCMDKILERYERYSYAEKVLISAESDTQGNWCHEYRKLKAKVETIQKCQKHLMGEDLESLNLKELQQLEQQLENSLKHIRSRKSQLMLESINELQRKEKSLQEENKVLQKELVEKQKVQKQQLQWDQT
notes: prey, AD fusion; also called PN20232
binding result (OsMADS6 aa 50-200): binds

B3: OsFDRMADS8 aa 60-160 (other)
chain: APSLQKTIDRYKAYTKDHVNNKTIQQDIQQVKDDTLGLAKKLEALDESRRKILGENLEGCSIEELRGLEMKLEKSLHNIRLKKTELLERQIAKLKEKERTL
notes: bait, Gal4 DBD fusion; also called PN20698
binding result (OsMADS45 aa 56-249): binds

B4
binding result (OsMADS8 aa 61-248): binds
binding result (OsMADS45 aa 48-249): binds
binding result (OsMADS45 aa 2-214): binds
binding result (OsMADS8 aa 68-245): binds
binding result (OsMADS45 aa 57-249): binds
binding result (OsMADS8 aa 6-159): binds

B5: OsPN31165 aa 58-252 (other)
chain: YAREMERLSAKESLLLAFRDAGGFESLVSGKTTGMQKIDVNERIVGLERLNPTPRPTTSPFLEGRWNFEWFGDSSPGALAARLLFERSPTTVAHFTGLDVLIKDGYSKISSNVKFLNTVQSKFLLTTQLSVEGPIRMKEEYVEGLIEIPRIREETLPDQLKGFFGQTAGALQQLPAPIRDAVSEGIKLPLNGMFQ
notes: prey, AD fusion; also called Novel protein PN31165
binding result (OsMADS3 aa 70-170): binds

B6: OsMADS5 aa 50-160 (other)
chain: TRGRLFEFSTSSCMYKTLERYRSCNYNLNSCEASAALETELSNYQEYLKLKTRVEFLQTTQRNLLGEDLVPLSLKELEQLENQIEISLMNIRSSKNQQLLDQVFELKRKEQ
notes: bait, Gal4 DBD fusion; also called PN20770
binding result (OsMADS17 aa 51-248): binds
binding result (OsFDRMADS6 aa 74-246): binds

B7: OsMADS15 aa 100-235 (other)
chain: AKIETIQKCHKHLMGEDHESLNLKELQQLEQQLESSLKHIISRKSHLMLESISELQKKERSLQEENKALQKELVERQKNVRGQQQVGQWDQTQVQAQAQAQPQAQTSSSSSSMLRDQQALLPPQNICYPPVMMGER
notes: bait, Gal4 DBD fusion; also called PN20842
binding result (OsMADS1 aa 95-254): binds
binding result (OsMADS1 aa 74-172): binds
binding result (OsMADS45 aa 120-249): binds
